Results reported in patent publication US20210401986A1.

Biological target: cetuximab (unconjugated anti-EGFR antibody)
Assay: cell-based or functional assay

AffiniPure Donkey Anti-Human IgG, Fcγ Fragment Specific (DxHu) antibody conjugated with IRDye 700DX
percent cell death of BxPC3 cells (CellTox Green) after sequential labeling and 690 nm light at 16 J/cm^2: 90%
